The target of one test is BSA (UniProt P02769 25-607). Nature of the test: single-point ELISA, BSA control. (In general: ELISA stands for enzyme-linked immunosorbent assay.)
Another test concerns the target gp120 SHIV SF162 P3 (SHIV SF162 P3). Nature of the test: single-point ELISA at EC50 conc. of A-1.
The target in the next test is gp120 CAAN (HIV (CAAN)). As to the kind of experiment: single-point ELISA at EC50 conc. of A-1.
A further test concerns the target gp120 Bal (HIV (Bal)). As to the kind of experiment: single-point ELISA at EC50 conc. of A-1.

Results on 3 molecules are retold here after US20240034774A1 (Gilead, published 2024).

B1: 1.1.26-1 (antibody, human IgG1, kappa)
heavy: QVQLLQSGAAVTKPGASVRVSCEASGYNIRDYFIHWWRQAPGQGLQWVGWINPKTGQPNNPRQFQGRVSLTRHASWDFDTFSFYMDLKALRSDDTAVYFCARQRSDYWDFDVWGSGTQVTVSSASTKGPSVFPLAPSSKSTSGGTAALGCLVKDYFPEPVTVSWNSGALTSGVHTFPAVLQSSGLYSLSSVVTVPSSSLGTQTYICNVNHKPSNTKVDKKVEPKSCDKTHTCPPCPAPELLAGPDVFLFPPKPKDTLMISRTPEVTCVVVDVSHEDPEVKFNWYVDGVEVHNAKTKPREEQYNSTYRVVSVLTVLHQDWLNGKEYKCKVSNKALPLPEEKTISKAKGQPREPQVYTLPPSREEMTKNQVSLTCLVKGFYPSDIAVEWESNGQPENNYKTTPPVLDSDGSFFLYSKLTVDKSRWQQGNVFSCSVLHEALHSHYTQKSLSLSPGK
light: DIQMTQSPSSLSASVGDTVTITCQANGYLNWYQQRRGKAPKLLIYDGSKLERGVPSRFSGRRWGQEYNLTINNLQPEDIATYFCQVYEFVVPGTRLDIKRTVAAPSVFIFPPSDEQLKSGTASVVCLLNNFYPREAKVQWKVDNALQSGNSQESVTEQDSKDSTYSLSSTLTLSKADYEKHKVYACEVTHQGLSSPVTKSFNRGEC
With B1, the “ELISA A450” value in the test with BSA was 0.06 A450; in the test with gp120 SHIV SF162 P3 it was 1.09 A450; with gp120 CAAN it was 1.07 A450; with gp120 Bal, 0.96 A450.

B2: 1.1.28-1 (antibody, human IgG1, kappa)
heavy: QVQLLQSGAAVTKPGASVRVSCEASGYNIRDYFIHWWRQAPGQGLQWVGWINPKTGQPNNPRQFQGRVSLTRHASWDFDTFSFYMDLKALRSDDTAVYFCARQRSDYWDFDVWGSGTQVTVSSASTKGPSVFPLAPSSKSTSGGTAALGCLVKDYFPEPVTVSWNSGALTSGVHTFPAVLQSSGLYSLSSVVTVPSSSLGTQTYICNVNHKPSNTKVDKKVEPKSCDKTHTCPPCPAPELLAGPDVFLFPPKPKDTLMISRTPEVTCVVVDVSHEDPEVKFNWYVDGVEVHNAKTKPREEQYNSTYRVVSVLTVLHQDWLNGKEYKCKVSNKALPLPEEKTISKAKGQPREPQVYTLPPSREEMTKNQVSLTCLVKGFYPSDIAVEWESNGQPENNYKTTPPVLDSDGSFFLYSKLTVDKSRWQQGNVFSCSVLHEALHSHYTQKSLSLSPGK
light: DIQMTQSPSSLSASVGDTVTITCQANGYLNWYQQRRGKAPKLLIYDGSKLERGVPSRFSGRRWGQEYNLTINNLQPEDIATYFCQVYEFVVPGTNVDIKRTVAAPSVFIFPPSDEQLKSGTASVVCLLNNFYPREAKVQWKVDNALQSGNSQESVTEQDSKDSTYSLSSTLTLSKADYEKHKVYACEVTHQGLSSPVTKSFNRGEC
On to B2, for which the “ELISA A450” value in the test with BSA turned out to be 0.06 A450; with gp120 SHIV SF162 P3, 1.09 A450; with gp120 CAAN, 0.93 A450; with gp120 Bal, 0.98 A450.

B3: 1.1.27-1 (antibody, human IgG1, kappa)
heavy: QVQLLQSGAAVTKPGASVRVSCEASGYNIRDYFIHWWRQAPGQGLQWVGWINPKTGQPNNPRQFQGRVSLTRHASWDFDTFSFYMDLKALRSDDTAVYFCARQRSDYWDFDVWGSGTQVTVSSASTKGPSVFPLAPSSKSTSGGTAALGCLVKDYFPEPVTVSWNSGALTSGVHTFPAVLQSSGLYSLSSVVTVPSSSLGTQTYICNVNHKPSNTKVDKKVEPKSCDKTHTCPPCPAPELLAGPDVFLFPPKPKDTLMISRTPEVTCVVVDVSHEDPEVKFNWYVDGVEVHNAKTKPREEQYNSTYRVVSVLTVLHQDWLNGKEYKCKVSNKALPLPEEKTISKAKGQPREPQVYTLPPSREEMTKNQVSLTCLVKGFYPSDIAVEWESNGQPENNYKTTPPVLDSDGSFFLYSKLTVDKSRWQQGNVFSCSVLHEALHSHYTQKSLSLSPGK
light: DIQMTQSPSSLSASVGDTVTITCQANGYLNWYQQRRGKAPKLLIYDGSKLERGVPSRFSGRRWGQEYNLTINNLQPEDIATYFCQVYEFVVPGTRVDIKRTVAAPSVFIFPPSDEQLKSGTASVVCLLNNFYPREAKVQWKVDNALQSGNSQESVTEQDSKDSTYSLSSTLTLSKADYEKHKVYACEVTHQGLSSPVTKSFNRGEC
As to B3, the “ELISA A450” value was found to be 0.06 A450 in the test with BSA, 1.1 A450 with gp120 SHIV SF162 P3, 0.99 A450 in the test with gp120 CAAN and 0.97 A450 with gp120 Bal.
